Earlier results as cited in patent US3940480A, “Process for production of stabilized powdery secretin preparation by lyophilization” (priority 1972, dated 1976).

Conditions: kept at -20°C

Secretin
Hormone activity of secretin kept at low temperature (in words): gradually loses its hormone activity
